Data on 6 molecules can be found in patent publication US20100167321A1 (AICHI PREFECTURE, published 2010).

For the test, the target named is T1, HLA-A2402 molecule on T2-A24 cells (human, UniProt P04439-2 25-302 at identity 0.92)).
T1 construct: whole, on cells; Cell-surface HLA-A2402 of T2-A24 transfectants; also called HLA-A24 molecules
T1 MHC heavy: not shown
In words: MHC stabilization assay, T2-A24 cells with 10 µM peptide, anti-HLA-A2402 mAb staining, flow cytometry. Background: In flow cytometry, cells or beads pass a laser one at a time.
For YYVDEKAPEF (Synthetic peptide) [Ep250 (Ep-CAM 250-259 peptide YYVDEKAPEF)], the “% MFI increase” value amounted to 57%.

On to KYEKAEIKEM (Synthetic peptide) [Ep296 (Ep-CAM 296-305 peptide KYEKAEIKEM)], for which the “% MFI increase” value worked out at 24%. To LYENNVITI (Synthetic peptide) [Ep185 (Ep-CAM 185-193 peptide LYENNVITI)] belongs 79%. Regarding LFHSKKMDL (Synthetic peptide) [Ep225 (Ep-CAM 225-233 peptide LFHSKKMDL)], the “% MFI increase” value came out at 29%. With EMGEMHREL (Synthetic peptide) [Ep304 (Ep-CAM 304-312 peptide EMGEMHREL)], the “% MFI increase” value came out at 16%.

For NYKLAVNCF (Synthetic peptide) [Ep31 (Ep-CAM 31-39 peptide NYKLAVNCF)], the “% MFI increase” value stood at 85%.
